According to patent publication US20250188161A1 (UNIVERSITE CATHOLIQUE DE LOUVAIN, published 2025):
Where “and” joins values, the source holds several entries; their conditions need not be identical. Equal entries are not always repeated. Values belong to the binder of their own block, whether it stands above or below them.

What was measured:
[1] = molecular target: T1, mouse latent TGF-β1 on transfected HEK-293T cells (mouse, UniProt P04202 30-278; P04202 279-390); test: cell-based or functional assay
T1 sequence (P04202 30-278, chain 1 of 2): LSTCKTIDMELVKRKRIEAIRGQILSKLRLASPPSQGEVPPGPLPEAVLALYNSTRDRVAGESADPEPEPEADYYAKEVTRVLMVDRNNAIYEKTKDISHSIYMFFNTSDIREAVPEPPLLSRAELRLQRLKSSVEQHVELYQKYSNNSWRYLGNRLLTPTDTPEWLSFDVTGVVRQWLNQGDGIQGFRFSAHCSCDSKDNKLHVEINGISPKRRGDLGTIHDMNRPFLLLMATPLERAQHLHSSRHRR
T1 sequence (P04202 279-390, chain 2 of 2): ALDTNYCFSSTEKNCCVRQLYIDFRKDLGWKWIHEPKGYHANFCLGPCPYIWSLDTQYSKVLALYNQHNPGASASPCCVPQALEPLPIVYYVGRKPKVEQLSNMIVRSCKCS

[2] = molecular target: mouse TGF-β1 L208A single Ala-mutant on HEK-293T cells (mouse, UniProt P04202 30-278; P04202 279-390); test: Ala-scan, flow cytometry on HEK-293T cells with mouse GARP and HA-tagged single Ala-mutant
Source text: (§1) To perform “Ala-scan” analyses, we co-transfected plasmids encoding mouse or human GARP and the single Ala-mutants of mouse or human TGF-β1 in HEK-293T cells, and analyzed binding by TGF-β1-activating and non-activating mAbs using flow cytometry (FIG. 3C).

[3] = molecular target: mouse TGF-β1 D212A single Ala-mutant on HEK-293T cells (mouse, UniProt P04202 30-278; P04202 279-390); test: as above
Chain of mouse TGF-β1 D212A single Ala-mutant on HEK-293T cells (P04202 30-278 D212A, chain 1 of 2): as the sequence (P04202 30-278, chain 1 of 2) above, with D183A counted along it
Chain of mouse TGF-β1 D212A single Ala-mutant on HEK-293T cells (P04202 279-390, chain 2 of 2): as the sequence (P04202 279-390, chain 2 of 2) above
Source text: as §1

human latent TGF-β1 = molecular target: T2, human latent TGF-β1 (human, UniProt P01137 30-278; P01137 279-390); test: SPR (Biacore 3000), human latent TGFβ1 amine-coupled on CM5, antibody injected
T2 construct: signal peptide 1-29 left out; also called human latent TGF-β1 (immobilised / coated protein)
T2 sequence (P01137 30-278, chain 1 of 2): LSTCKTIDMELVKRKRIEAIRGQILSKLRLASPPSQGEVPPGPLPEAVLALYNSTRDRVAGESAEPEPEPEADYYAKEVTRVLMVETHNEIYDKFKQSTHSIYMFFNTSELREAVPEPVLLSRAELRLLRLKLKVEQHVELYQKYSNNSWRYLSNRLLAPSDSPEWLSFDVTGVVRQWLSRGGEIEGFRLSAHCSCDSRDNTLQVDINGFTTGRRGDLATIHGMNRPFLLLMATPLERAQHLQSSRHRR
T2 sequence (P01137 279-390, chain 2 of 2): as the sequence (P04202 279-390, chain 2 of 2) above, with S75A counted along it

G211A = molecular target: T3, G211A; test: Ala-scan, flow cytometry, HEK-293T cells with GARP and the HA-tagged Ala-mutant; residual binding in % of WT
T3 construct: co-expressed with GARP; also called mouse TGF-β1 G211A single Ala-mutant on HEK-293T cells
T3 sequence (HA-tagged latent TGF-β1, as listed by the source G211A G211A limits assumed): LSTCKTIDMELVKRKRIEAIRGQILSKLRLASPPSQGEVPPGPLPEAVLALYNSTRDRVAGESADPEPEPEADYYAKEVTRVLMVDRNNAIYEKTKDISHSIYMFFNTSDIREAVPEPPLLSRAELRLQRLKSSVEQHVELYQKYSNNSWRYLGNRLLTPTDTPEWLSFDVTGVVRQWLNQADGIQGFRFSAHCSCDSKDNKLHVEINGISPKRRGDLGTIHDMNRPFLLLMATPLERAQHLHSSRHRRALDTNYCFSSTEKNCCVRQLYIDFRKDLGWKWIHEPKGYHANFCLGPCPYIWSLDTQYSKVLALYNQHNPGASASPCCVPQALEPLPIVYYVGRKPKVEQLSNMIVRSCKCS
Source text: as §1

V203A = molecular target: T4, V203A; test: as above
T4 construct: co-expressed with GARP; also called mouse TGF-β1 V203A single Ala-mutant on HEK-293T cells
Source text: as §1

N209A = molecular target: T5, N209A; test: as above
T5 construct: co-expressed with GARP; also called mouse TGF-β1 N209A single Ala-mutant on HEK-293T cells
T5 sequence (HA-tagged latent TGF-β1, as listed by the source N209A N209A limits assumed): as the sequence (HA-tagged latent TGF-β1, as listed by the source G211A G211A limits assumed) above, with N180A, A182G counted along it
Source text: as §1

G216A = molecular target: T6, G216A; test: as above
T6 construct: co-expressed with GARP; also called mouse TGF-β1 G216A single Ala-mutant on HEK-293T cells
T6 sequence (HA-tagged latent TGF-β1, as listed by the source G216A G216A limits assumed): as the sequence (HA-tagged latent TGF-β1, as listed by the source G211A G211A limits assumed) above, with A182G, G187A counted along it
Source text: as §1

G202A = molecular target: T7, G202A; test: as above
T7 construct: co-expressed with GARP; also called mouse TGF-β1 G202A single Ala-mutant on HEK-293T cells
T7 sequence (HA-tagged latent TGF-β1, as listed by the source G202A G202A limits assumed): as the sequence (HA-tagged latent TGF-β1, as listed by the source G211A G211A limits assumed) above, with G173A, A182G counted along it
Source text: as §1

Q206A = molecular target: T8, Q206A; test: as above
T8 construct: co-expressed with GARP; also called mouse TGF-β1 Q206A single Ala-mutant on HEK-293T cells
Source text: as §1

R205A = molecular target: T9, R205A; test: as above
T9 construct: co-expressed with GARP; also called mouse TGF-β1 R205A single Ala-mutant on HEK-293T cells
Source text: as §1

F217A = molecular target: T10, F217A; test: as above
T10 construct: co-expressed with GARP; also called mouse TGF-β1 F217A single Ala-mutant on HEK-293T cells
Source text: as §1

Q210A = molecular target: T11, Q210A; test: as above
T11 construct: co-expressed with GARP; also called mouse TGF-β1 Q210A single Ala-mutant on HEK-293T cells
Source text: as §1

Q215A = molecular target: T12, Q215A; test: as above
T12 construct: co-expressed with GARP; also called mouse TGF-β1 Q215A single Ala-mutant on HEK-293T cells
Source text: as §1

R218A = molecular target: T13, R218A; test: as above
T13 construct: co-expressed with GARP; also called mouse TGF-β1 R218A single Ala-mutant on HEK-293T cells
T13 sequence (HA-tagged latent TGF-β1, as listed by the source R218A R218A limits assumed): as the sequence (HA-tagged latent TGF-β1, as listed by the source G211A G211A limits assumed) above, with A182G, R189A counted along it
Source text: as §1

G213A = molecular target: T14, G213A; test: as above
T14 construct: co-expressed with GARP; also called mouse TGF-β1 G213A single Ala-mutant on HEK-293T cells
Source text: as §1

F219A = molecular target: T15, F219A; test: as above
T15 construct: co-expressed with GARP; also called mouse TGF-β1 F219A single Ala-mutant on HEK-293T cells
T15 sequence (HA-tagged latent TGF-β1, as listed by the source F219A F219A limits assumed): as the sequence (HA-tagged latent TGF-β1, as listed by the source G211A G211A limits assumed) above, with A182G, F190A counted along it
Source text: as §1

S220A = molecular target: T16, S220A; test: as above
T16 construct: co-expressed with GARP; also called mouse TGF-β1 S220A single Ala-mutant on HEK-293T cells
Source text: as §1

W207A = molecular target: T17, W207A; test: as above
T17 construct: co-expressed with GARP; also called mouse TGF-β1 W207A single Ala-mutant on HEK-293T cells
Source text: as §1

T201A = molecular target: T18, T201A; test: as above
T18 construct: co-expressed with GARP; also called mouse TGF-β1 T201A single Ala-mutant on HEK-293T cells
T18 sequence (HA-tagged latent TGF-β1, as listed by the source T201A T201A limits assumed): as the sequence (HA-tagged latent TGF-β1, as listed by the source G211A G211A limits assumed) above, with T172A, A182G counted along it
Source text: as §1

I214A = molecular target: T19, I214A; test: as above
T19 construct: co-expressed with GARP; also called mouse TGF-β1 I214A single Ala-mutant on HEK-293T cells
T19 sequence (HA-tagged latent TGF-β1, as listed by the source I214A I214A limits assumed): as the sequence (HA-tagged latent TGF-β1, as listed by the source G211A G211A limits assumed) above, with A182G, I185A counted along it
Source text: as §1

V204A = molecular target: T20, V204A; test: as above
T20 construct: co-expressed with GARP; also called mouse TGF-β1 V204A single Ala-mutant on HEK-293T cells
T20 sequence (HA-tagged latent TGF-β1, as listed by the source V204A V204A limits assumed): as the sequence (HA-tagged latent TGF-β1, as listed by the source G211A G211A limits assumed) above, with V175A, A182G counted along it
Source text: as §1

mouse latent TGF-β1 = molecular target: T21, mouse latent TGF-β1 (mouse, UniProt P04202 30-278; P04202 279-390); test: SPR (Biacore 3000), mouse latent TGFβ1 amine-coupled on CM5 (about 500 RU), antibody at 3-100 nM
T21 construct: signal peptide 1-29 left out; also called murine latent TGF-β1 (immobilised protein)
T21 sequence (P04202 30-278, chain 1 of 2): as the sequence (P04202 30-278, chain 1 of 2) above
T21 sequence (P04202 279-390, chain 2 of 2): as the sequence (P04202 279-390, chain 2 of 2) above
Method: A CM5 chip was immobilized with approximately 500RU human latent TGFβ1 and mouse latent TGFβ1 in sodium acetate buffer pH4.5 (GE Healthcare, #BR100350) using amine coupling and consuming HBS-EP buffer. The flow was set to 30 μl/min with the “kinject” injection mode and a regeneration injection of 10 mM glycine pH1.5.

[4] = molecular target: T1, mouse latent TGF-β1 on transfected …; test: flow cytometry, HEK-293T cells co-transfected with mGarp and the HA-tagged TGF-β1 construct
[5] = molecular target: T22, mouse latent TGF-β3 on transfected 293T cells (mouse, UniProt P17125 24-410); test: flow cytometry, 293T cells transfected with GARP and HA-TGF-β3, GAM-FITC as secondary reagent; anti-HA staining gives only a low tail
T22 construct: whole, on cells; also called murine latent TGF-β3; HA-tagged TGF-β3
T22 sequence (looked up): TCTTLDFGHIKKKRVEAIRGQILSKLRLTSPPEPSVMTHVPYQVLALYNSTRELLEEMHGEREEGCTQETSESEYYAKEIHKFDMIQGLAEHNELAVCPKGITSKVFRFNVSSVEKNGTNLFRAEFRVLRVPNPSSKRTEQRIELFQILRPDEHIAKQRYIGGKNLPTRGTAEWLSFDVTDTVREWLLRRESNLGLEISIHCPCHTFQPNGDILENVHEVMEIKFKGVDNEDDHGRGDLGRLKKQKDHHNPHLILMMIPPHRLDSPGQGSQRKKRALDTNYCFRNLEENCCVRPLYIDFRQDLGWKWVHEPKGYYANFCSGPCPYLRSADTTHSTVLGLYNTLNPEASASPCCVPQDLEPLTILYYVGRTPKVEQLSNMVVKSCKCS
Source text: (§2) Flow cytometry was used to ensure that LMT-12 binds specifically to mouse latent TGF-β1 and not to mouse latent TGF-β2 and mouse latent TGF-β3. Briefly, 293T cells were transfected with plasmids encoding HA-tagged TGF-β1, β2, or β3, with a plasmid encoding GARP. They were then stained with the indicated concentrations of LMT-12 mIgG1 or anti-HA mIgG1 antibody and thereafter with goat anti-mouse coupled to FITC (GAM-FITC) as secondary reagent. Using flow cytometry, histograms were gated on live cells as determined with a viability dye (Bioscience, cat. 65-0865-14).

[6] = molecular target: T23, mouse latent TGF-β2 on transfected 293T cells (mouse, UniProt P27090 21-414); test: flow cytometry, 293T cells transfected with GARP and HA-TGF-β2, GAM-FITC as secondary reagent; expression shown by anti-HA staining
T23 construct: whole, on cells; also called murine latent TGF-β2; HA-tagged TGF-β2
T23 sequence (looked up): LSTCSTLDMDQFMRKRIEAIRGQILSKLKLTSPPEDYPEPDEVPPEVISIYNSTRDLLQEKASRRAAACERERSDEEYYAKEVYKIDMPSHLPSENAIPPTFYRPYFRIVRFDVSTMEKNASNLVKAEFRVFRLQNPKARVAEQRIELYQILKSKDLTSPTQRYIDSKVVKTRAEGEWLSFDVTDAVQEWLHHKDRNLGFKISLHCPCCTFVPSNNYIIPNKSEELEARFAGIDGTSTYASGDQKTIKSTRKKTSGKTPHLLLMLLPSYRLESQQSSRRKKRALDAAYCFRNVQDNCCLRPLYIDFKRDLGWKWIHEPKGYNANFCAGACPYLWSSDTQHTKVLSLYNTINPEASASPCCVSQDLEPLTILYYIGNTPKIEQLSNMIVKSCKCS
Source text: as §2

- EC50, TGF-β1 luciferase reporter assay in HEK-293T cells expressing GARP:TGF-β1 [1]: 76 ng/ml and 0.5 nM
- binding result [2]: no binding
- binding result [3]: no binding
- binding result (G211A): binds
- binding result (V203A): binds
- binding result (N209A): binds
- binding result (G216A): binds
- binding result (G202A): binds
- binding result (Q206A): binds
- binding result (R205A): binds
- binding result (F217A): binds
- binding result (Q210A): binds
- binding result (Q215A): binds
- binding result (R218A): binds
- binding result (G213A): binds
- binding result (F219A): binds
- binding result (S220A): binds
- binding result (W207A): binds
- binding result (T201A): binds
- binding result (I214A): binds
- binding result (V204A): binds
- Amplitude R0 (RU) (mouse latent TGF-β1): 241 RU
- Kd (mouse latent TGF-β1): 0.633 nM
- koff (mouse latent TGF-β1): 0.000718 s⁻¹
- kon (mouse latent TGF-β1): 1.14e+06 M⁻¹ s⁻¹
- % binding relative to WT TGF-β1 (100 %) [4]: 100%
B1: LMT-2 (6D12) (antibody, V domains shown)
VH: EVQLVESGGGLVQPGGSLRLSCAASGFTFSNYGVHWVRQAPGKGLEWVSHISAAGISRYYADAVKGRFTMSRDNGKNTLYLQMNGLKSEDTAVYYCAKDRIRSSYEYDSWGQGTQVTVSS
VL: LPVLTQLSSMSGSPGQTVTITCTGSSSNIGGGYYLSWYQQLPGTAPKLLIYNANNRASGVPNRFSGSKSGNLASLTITGLQAEDEADYYCGCYDSSLSTGYVFGGGTKLTVL
notes: also called LMT-2 (hIgG1)
- binding result (human latent TGF-β1): no binding (tested: six concentrations, 3 nM to 100 nM)

- binding result [5]: no binding (tested: 20.00 µg/ml)
- binding result [6]: no binding (tested: 20.00 µg/ml)
B2: LMT-12 mIgG1 (antibody, V domains shown)
VH: EVQLVESGGGLVQPGGSLRLSCAASGFTFSSYYMYWVRQAPGKGLEWVSGTSIGGGSTWYADSVKGRFTISRDNAKNTLYLQMNNLKSEDTAVYYCAKDLNSRSYKGMGDWGQGTQVTVSS
VL: QPALTQLSSMSGSPGQTVTITCTGSSSNIGGGYYLNWYQQLPGAAPKLVIYNANNRASGVPDRFSGSKSGNLASLTITGLQAEDEAVYFCGCYDSSLSSVVFGGGTHLTVL
notes: also called mAb LMT-12
